# Measured values from US20210309732A1 (ELIXIRON IMMUNOTHERAPEUTICS HONG KONG, published 2021).
# Substitutions are numbered along the chain they refer to.
# B1: 1D2 SDR mutant HR100I (antibody, IgG1, V domains shown)
# VH: QVQLVQSGAEVKKPGASVKVSCEASGYTFTDKYLHWVRQAPGQGLEWMAWINPKSGGTFYAQNFKGRVTVTRDTSINTAYLELTSLRLDDTSTYYCARGIDYYDQGAADLWGQGTMVTVSS
# VL: DIQLTQSPSSLSASVGDRVTITCRASQGINSVLAWYQQKPGKAPKLLLYAASKLESGVPSRFSGSGSGTDYTLTISSLQPEDFGTYYCQQYYSPVRTFGQGTKVEIKR
# notes: also called X4 I
# B2: 1D2 SDR mutant HY102L (antibody, IgG1, V domains shown)
# VH: B1 VH with I100R, Y102L
# VL: B1 VL
# notes: also called X5 L
# B3: 1D2 SDR mutant LP94R (antibody, IgG1, V domains shown)
# VH: B1 VH with I100R
# VL: B1 VL with P94R
# notes: also called X9 R
# B4: 1D2 SDR mutant HY103D (antibody, IgG1, V domains shown)
# VH: B1 VH with I100R, Y103D
# VL: B1 VL
# notes: also called X6 D
# B5: 1D2 SDR mutant HY103V (antibody, IgG1, V domains shown)
# VH: B1 VH with I100R, Y103V
# VL: B1 VL
# notes: also called X6 V
# B6: 1D2 SDR mutant HY103A (antibody, IgG1, V domains shown)
# VH: B1 VH with I100R, Y103A
# VL: B1 VL
# notes: also called X6 A
# B7: 1D2 SDR mutant LV95E (antibody, IgG1, V domains shown)
# VH: B1 VH with I100R
# VL: B1 VL with V95E
# notes: also called X10 E
# B8: 1D2 SDR mutant HY103K (antibody, IgG1, V domains shown)
# VH: B1 VH with I100R, Y103K
# VL: B1 VL
# notes: also called X6 K
# B9: 1D2 SDR mutant LV95D (antibody, IgG1, V domains shown)
# VH: B1 VH with I100R
# VL: B1 VL with V95D
# notes: also called X10 D
# B10: 1D2 SDR mutant LV32G (antibody, IgG1, V domains shown)
# VH: B1 VH with I100R
# VL: B1 VL with V32G
# notes: also called X8 G
# B11: 1D2 SDR mutant HY102S (antibody, IgG1, V domains shown)
# VH: B1 VH with I100R, Y102S
# VL: B1 VL
# notes: also called X5 S
# B12: 1D2 SDR mutant HY102T (antibody, IgG1, V domains shown)
# VH: B1 VH with I100R, Y102T
# VL: B1 VL
# notes: also called X5 T
# B13: 1D2 SDR mutant HY103Q (antibody, IgG1, V domains shown)
# VH: B1 VH with I100R, Y103Q
# VL: B1 VL
# notes: also called X6 Q
# B14: 1D2 SDR mutant HR100Q (antibody, IgG1, V domains shown)
# VH: B1 VH with I100Q
# VL: B1 VL
# notes: also called X4 Q
# B15: 1D2 SDR mutant HY103H (antibody, IgG1, V domains shown)
# VH: B1 VH with I100R, Y103H
# VL: B1 VL
# notes: also called X6 H
# B16: 1D2 SDR mutant HR100V (antibody, IgG1, V domains shown)
# VH: B1 VH with I100V
# VL: B1 VL
# notes: also called X4 V
# B17: 1D2 SDR mutant HR100T (antibody, IgG1, V domains shown)
# VH: B1 VH with I100T
# VL: B1 VL
# notes: also called X4 T
# B18: 1D2 SDR mutant HY103S (antibody, IgG1, V domains shown)
# VH: B1 VH with I100R, Y103S
# VL: B1 VL
# notes: also called X6 S
# B19: 1D2 SDR mutant LV32Y (antibody, IgG1, V domains shown)
# VH: B1 VH with I100R
# VL: B1 VL with V32Y
# notes: also called X8 Y
# B20: 1D2 SDR mutant LV32F (antibody, IgG1, V domains shown)
# VH: B1 VH with I100R
# VL: B1 VL with V32F
# notes: also called X8 F
# B21: 1D2 SDR mutant HR100M (antibody, IgG1, V domains shown)
# VH: B1 VH with I100M
# VL: B1 VL
# notes: also called X4 M
# B22: 1D2 SDR mutant HR100P (antibody, IgG1, V domains shown)
# VH: B1 VH with I100P
# VL: B1 VL
# notes: also called X4 P
# B23: 1D2 SDR mutant HY103L (antibody, IgG1, V domains shown)
# VH: B1 VH with I100R, Y103L
# VL: B1 VL
# notes: also called X6 L
# B24: 1D2 SDR mutant HR100L (antibody, IgG1, V domains shown)
# VH: B1 VH with I100L
# VL: B1 VL
# notes: also called X4 L
# B25: 1D2 SDR mutant HY102W (antibody, IgG1, V domains shown)
# VH: B1 VH with I100R, Y102W
# VL: B1 VL
# notes: also called X5 W
# B26: 1D2 SDR mutant LV32L (antibody, IgG1, V domains shown)
# VH: B1 VH with I100R
# VL: B1 VL with V32L
# notes: also called X8 L
# B27: 1D2 SDR mutant HY103F (antibody, IgG1, V domains shown)
# VH: B1 VH with I100R, Y103F
# VL: B1 VL
# notes: also called X6 F
# B28: 1D2 SDR mutant HY103G (antibody, IgG1, V domains shown)
# VH: B1 VH with I100R, Y103G
# VL: B1 VL
# notes: also called X6 G
# B29: 1D2 SDR mutant LV95L (antibody, IgG1, V domains shown)
# VH: B1 VH with I100R
# VL: B1 VL with V95L
# notes: also called X10 L
# B30: 1D2 SDR mutant HY103P (antibody, IgG1, V domains shown)
# VH: B1 VH with I100R, Y103P
# VL: B1 VL
# notes: also called X6 P
# B31: 1D2 SDR mutant HR100S (antibody, IgG1, V domains shown)
# VH: B1 VH with I100S
# VL: B1 VL
# notes: also called X4 S
# B32: 1D2 SDR mutant HY102A (antibody, IgG1, V domains shown)
# VH: B1 VH with I100R, Y102A
# VL: B1 VL
# notes: also called X5 A
# B33: 1D2 SDR mutant HY103T (antibody, IgG1, V domains shown)
# VH: B1 VH with I100R, Y103T
# VL: B1 VL
# notes: also called X6 T
# B34: 1D2 SDR mutant LV95C (antibody, IgG1, V domains shown)
# VH: B1 VH with I100R
# VL: B1 VL with V95C
# notes: also called X10 C
# B35: 1D2 SDR mutant HY102N (antibody, IgG1, V domains shown)
# VH: B1 VH with I100R, Y102N
# VL: B1 VL
# notes: also called X5 N
# B36: 1D2 SDR mutant HY103M (antibody, IgG1, V domains shown)
# VH: B1 VH with I100R, Y103M
# VL: B1 VL
# notes: also called X6 M
# B37: 1D2 SDR mutant LV32E (antibody, IgG1, V domains shown)
# VH: B1 VH with I100R
# VL: B1 VL with V32E
# notes: also called X8 E
# B38: 1D2 SDR mutant LV32H (antibody, IgG1, V domains shown)
# VH: B1 VH with I100R
# VL: B1 VL with V32H
# notes: also called X8 H
# B39: 1D2 SDR mutant HY103W (antibody, IgG1, V domains shown)
# VH: B1 VH with I100R, Y103W
# VL: B1 VL
# notes: also called X6 W
# B40: 1D2 SDR mutant HY102I (antibody, IgG1, V domains shown)
# VH: B1 VH with I100R, Y102I
# VL: B1 VL
# notes: also called X5 I
# B41: 1D2 SDR mutant HY102G (antibody, IgG1, V domains shown)
# VH: B1 VH with I100R, Y102G
# VL: B1 VL
# notes: also called X5 G
# B42: 1D2 SDR mutant LV32P (antibody, IgG1, V domains shown)
# VH: B1 VH with I100R
# VL: B1 VL with V32P
# notes: also called X8 P
# B43: 1D2 SDR mutant LP94C (antibody, IgG1, V domains shown)
# VH: B1 VH with I100R
# VL: B1 VL with P94C
# notes: also called X9 C
# B44: 1D2 SDR mutant HY102F (antibody, IgG1, V domains shown)
# VH: B1 VH with I100R, Y102F
# VL: B1 VL
# notes: also called X5 F
# B45: 1D2 SDR mutant HY102V (antibody, IgG1, V domains shown)
# VH: B1 VH with I100R, Y102V
# VL: B1 VL
# notes: also called X5 V
# Molecular target: T1, recombinant human GM-CSF (human, UniProt P04141 18-144)
# T1 construct: also called rhGM-CSF; CSF2
# Test: ELISA on coated rhGM-CSF, UBA relative to 1D2
# How it was run: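 Antibody clones carrying SDR point mutants in VH or VL, each paired with the wild-type chain, were expressed in HEK293 cells. Culture media diluted 1:12000 were bound to plates coated with rhGM-CSF at 1 μg/mL for 1 h at room temperature. Detection used HRP anti-human antibody and Amplex Red fluorescence (Ex530/Em590), with UBA = fluorescence signal/dilution factor.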
# T1 sequence (P04141 18-144 limits assumed): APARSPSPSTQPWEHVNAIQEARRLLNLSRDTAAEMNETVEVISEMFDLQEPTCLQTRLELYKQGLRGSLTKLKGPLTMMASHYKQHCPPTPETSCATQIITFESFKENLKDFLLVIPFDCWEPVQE
row,binding affinity % of 1D2 [%],Binder
1,80,B1
2,86,B2
3,146,B3
4,134,B4
5,88,B5
6,88,B6
7,40,B7
8,143,B8
9,47,B9
10,297,B10
11,104,B11
12,56,B12
13,74,B13
14,57,B14
15,109,B15
16,74,B16
17,93,B17
18,85,B18
19,114,B19
20,109,B20
21,94,B21
22,101,B22
23,67,B23

row,binding affinity % of 1D2 [%],Binder
1,69,B24
2,82,B25
3,167,B26
4,81,B27
5,138,B28
6,41,B29
7,141,B30
8,72,B31
9,68,B32
10,104,B33
11,46,B34
12,83,B35
13,94,B36
14,110,B37
15,128,B38
16,139,B39
17,64,B40
18,89,B41
19,581,B42
20,253,B43
21,71,B44
22,71,B45
